Reference: article PMC3205929 (The Journal of neuroscience : the official journal of the …, 2011)

Target: DAT 587–590(4A) mutant expressed in PC12 cells (human, UniProt Q01959 1-620, 587–590(4A))
Assay: co-IP

B1: Rin, endogenous in PC12 cells (natural protein, rat (endogenous in PC12), UniProt Q5BJQ5 1-217, looked up)
chain: MEAENEAHCCPGSSSGGSREYKVVMLGAGGVGKSAVTMQFISHQFPDYHDPTIEDAYKTQVRIDNEPAYLDILDTAGQAEFTAMREQYMRGGEGFIICYSVTDRQSFQEAAKFKELIFQVRHTYEIPLVLVGNKIDLEQFRQVSTEEGMTLARDYNCAFFETSAALRFGIDDAFQGLVREIRRKESMLSLVERKLKRKDSLWKKIKASLKKKRENMI
  basal interaction with Rin, % of wild type DAT: 300 % of wild type DAT/Rin interactions
